These results are taken from the DeepSol protein solubility set.

The series in a line: soluble on expression in E. coli; label from the status in PepcDB or PDB records.
With “MSHAVTIEEPQAQPQVSQTRYRERSRAGSHISSNRAYDFLYDPLFIVSSEKDHTQANIQATLIRSRLRKVPRFKTMFSNLIHYPRYSLYWSKSDPVPPFISREWKGHKEKHREALRQLTTTDASFQMPKEVYEDPEVTGKNRYKYFERPFLPFFQQMPFNVVYAVSKAEPYTFPPTSTKHLSIPSKSTVGTQTDYRDADVQTDPYSPEYVVCQDSIPELLTLATLTWGRGLPAGQAEVEMIERAREKRAWEASLPALSDTSQFEKRRKMMNEMERKEWAFREQEIEKLQEIRLEVLKELLRKREENQNEVNMKHLNARWSKLQEGKEAKMAVIYLQKLLRGRVIQNMMFEGKEKRLELIQELRTCHALQEDEKLVKKAEKQVTLALQRQRNLHEHKVSLVENHLAGLEGRALADMFDFLSKELVRLQEERRIHAFVMLAERQRRVREAEESGRRQVEKQRLREEDEIFKEVVKVHHSTISSYLEDIILNTEANTAEEQARAEIEKMAEKINDIAYEMESRRTYLQSEEIVAELVYSFLIPEVQKYFVKEKVRNAQRKHILAAHQIIHSYTESMVQKKLTEGEQDEASNAAMLLEKETQNENNS”, the “soluble on expression in E. coli” value is listed as “not soluble”.

“MSHVSTLRRALLGALLLAPAAALANTPIPIDVWRTPTCGCCEDWLQHLRSNGFEVRAHMVEDTAPVRSQAGMPARYGSCHTARVQGYTVEGHVPAADIRRLLRDKPRAVGLTAPGMPIGSPGMDGPAYGGRRDAYDVLLVQPDGSARVFQAYR”: the “soluble on expression in E. coli” value is given as “not soluble”.

With “MSIEKLKAALPEYAKDIKLNLSSITRSSVLDQEQLWGTLLASAAATRNPQVLADIGAEATDHLSAAARHAALGAAAIMGMNNVFYRGRGFLEGRYDDLRPGLRMNIIANPGIPKANFELWSFAVSAINGCSQCLVAHEHTLRTVGVDREAIFEALKAAAIVSGVAQALATIEALSPS”, the “soluble on expression in E. coli” value is given as “soluble”.

On to “MSIFNKDALSSFFGLSGEEDDYYDNYEEYEERKAVNEPPRRAARPKPQRPVQQQESYSQPAYTQQSEPVVEKPSARYRSAEAHQERDTQQAAYTEKKVVSMRSSNQSATTNTRRAQESTANAKTHKITIIEPRVYSEAMSIAKHLFAEEAVLVNFTLVEEDQARRIVDFLTGTVYALDGDIQRVGNEIFLCTPANMEIDSATAQSLANKQFFDFLEHHHHHH”, for which the “soluble on expression in E. coli” value is recorded as “not soluble”.

Consider “MSIILYTANDGTAQFALQEFGGQLWLTQADMAELYQTTKQNISKHIKTILAEQELEEKATVNFQLTVQNENGRKVNRKIAHYSLPMIIAVGYRVRSARGIQFRQWATERLDEYLTKGFAIDDERLKGTGGGDYWKELLNRIRDIRSSEKALYRQVLDLYATSQDYNPKSSESQTFFAAVQNKLHYAASRQTAAELIYSRADSSKDFMGLTTFQGAIPTLNEAKIAKNYLTEDELFRLNRLVSAFFDLAEIKAQEQSPMYMRDWIAELDKFSGLYGQGTLQGAGSISRKQAEQKAEREYRAYEARILSPVEQAYLESVKALEKTAVQQIKQKKDRTK”, for which the “soluble on expression in E. coli” value is “not soluble”.

Consider “MSIISTKYLLQDAQANGYAVPAFNIHNAETIQAILEVCSEMRSPVILAGTPGTFKHIALEEIYALCSAYSTTYNMPLALHLDHHESLDDIRRKVHAGVRSAMIDGSHFPFAENVKLVKSVVDFCHSQDCSVEAELGRLGGVEDDMSVDAESAFLTDPQEAKRFVELTGVDSLAVAIGTAHGLYSKTPKIDFQRLAEIREVVDVPLVLHGASDVPDEFVRRTIELGVTKVNVATELKIAFAGAVKAWFAENPQGNDPRYYMRVGMDAMKEVVRNKINVCGSANRISA”, for which the “soluble on expression in E. coli” value is “soluble”.

Turning to “MSIKFELIDVPIPQGTNVIIGQAHFIKTVEDLYEALVTSVPGVKFGIAFCEASGKRLVRHEANDEELRNLAIDLCKKIAAGHVFVIYIRNAWPINVLNAIKNVPEVVRIFAATANPLKVIVAEVEPERRGVVGVVDGHSPLGVETEKDREERKKFLREVVKYKL”, the “soluble on expression in E. coli” value is recorded as “soluble”.

As for “MSIPLLEYKPSSQNQRVPGYEVPNEDTPRIYRIEDAAYDSELKELIWATYRQVFSEHVILKFFRQGNLESQLKNRAISVRDFVRGLAKSEAFKTLVIKSNSNYRLVELALKRLLGRAPYNKDEEIAWSIKIATNGWDGFVDALLDSEEYQSNFGENIVPYQRRRYKDRPFNLVTPRYGNYWRDKLESERYIEGDIKNFLELAKSIEIKTVTFTPVSTANIKIPDTTRNTTPTGIPISVNPSANFPVRLEHHHHHH”, the “soluble on expression in E. coli” value is given as “not soluble”.

In the case of “MSIQIPRGTQDILPGTVELWQYIEGQAREICRRYNYKEIRTPIFEHTELFLRGVGDTTDIVQKEMYSFQDRGERSLTLRPEGTAPVVRSYVENKMFGDATQPTKLYYIGQMFRYERPQAGRYRQFVQFGIEAIGSNDPAIDAEVIALAVEFYRGMGLKNIKVVLNSLGDAASRQAHRDALIAHFEPRIGEFCSDCQSRLEKNPLRILDCKKDRNHELMGTAPSITEYLNEDSAVYYDKVQELLTMMDVPFEKDPNLVRGLDYYQHTVFEIMSEAEGFGAITTLSGGGRYNGLVQEIGGPEMPGIGFAMSIERLIMALKAENIELPIEHSIDCYVVALGEKAKDHAAKVAFDLRKAGLAVEKDYLDRKMKAQFKSADRLKAKFVAVLGEDELDKGIINLKDMATGEQEEVALDVFASYVAEKLI”, the “soluble on expression in E. coli” value is “soluble”.

Consider “MSISQNNFLTMFPVTYTFENGVYSTIINQNTIQTPIPNPIQHHIQNHIQTSIPNTNLLLENVQTDVQKLMVPLIDQQFHIPTSTPLQLAPIPTQIQSQLQPQISQIPIHNQPQIQIQSQVQPQLPTQSQPKPSSKASLDTSSNAFKKYVNPFAPEATVPLPVELEDQYGPYSSSVWKRNERERCRVRNVNDGYERLRKHLPVHFDEKRISKVDTLRLAIRYIKHLDNLLRSELHQYNCKCFNGFQEESEGNILIDISTFNFNSSNNAM”, for which the “soluble on expression in E. coli” value is “not soluble”.

As for “MSITEDIDDLKTAIENNEPIRKGIEETMHRASQIRIKQRYNCAEQEVTQMRAPFLGFSVFVRFQSRARAHTIKIINEDEVEQMLASSPVPYS”, the “soluble on expression in E. coli” value was “not soluble”.

Take “MSITLSDSAAARVNTFLANRGKGFGLRLGVRTSGCSGMAYVLEFVDEPTPEDIVFEDKGVKVVVDGKSLQFLDGTQLDFVKEGLNEGFKFTNPNVKDECGCGESFKLAAALDHHHHHH”: the “soluble on expression in E. coli” value is reported as “soluble”.

With “MSIVSISYNQEEYIREALDGFAAQRTEFPVEVIIADDASTDATPRIIGEYAARYPQLFRPILRQTNIGVHANFKDVLSAARGEYLALCEGDDYWTDPLKLSKQVKYLDRHPETTVCFHPVRVIYEDGAKDSEFPPLSWRRDLSVDALLARNFIQTNSVVYRRQPSYDDIPANVMPIDWYLHVRHAVGGEIAMLPETMAVYRRHAHGIWHSAYTDRRKFWETRGHGMAATLEAMLDLVHGHREREAIVGEVSAWVLREIGKTPGRQGRALLLKSIADHPRMTMLSLQHRWAQTPWRRFKRRLSTELSSLAALAYATRRRALEGRDGGYRETTSPPTGRGRNVRGSHA”, the “soluble on expression in E. coli” value was “not soluble”.

For “MSIYEFDSEEEYATFVNWIEAKKPSITDCSIETFNDDLEDFDRLDEDGLYIEYTRVLLDNLNVTKSMDLMIPTHSSFEFSQDFHLDAVRLRSCFGRNNLFNFHCKEIEVSDSEISSENVNQYLRAWAAGCYNELEKLEVLFYGNENKFDWKPLLQGLNRKRTIYEHNIIDPEVTDETTEVKIETEHPGEFDYYYYKWAKIHRKVDSEGNFYMGMIVN”, the “soluble on expression in E. coli” value is “not soluble”.

As to “MSKADPSKGPAPACPGPDPAPRRPTRYVVPPGAVDTHAHVIGLPPTYPFVDARSYTPPAATPESYLAMLDATGMTYGVVVQVSVHGTDNRLMLETLQAHRDRLKGIAVIPLGLPDKELAALKDAGVVGLRLNILYGGGIGFERVGEYAAMAKELGWHLQFLIDAKDLVPLAPQLGGLPVPFIVDHWGHFPVSRGIDDPGFQTLVSLVRDGAWVKLSGAYRNTVAGFPYLDTIPFARLLHETAPDRCVWGSDWPHVATWQHMMNVGELLDLLADWVPDAAARDRVFTDNAYRLYGFTPVQGLEHHHHHH”, the “soluble on expression in E. coli” value was “not soluble”.

With “MSKAVIDTGVFVDYIDRKSPLHDVARNVINSIGQLEVLLPYVTIAEICYVTARVLREAGIEEWLEKSVEFVEWLQRHPAVEVVCSTELDVEAAKVKLRYGLALADCYVLALSKLKNCKAVFRKREKEMPDKVEKDFDVIFLEDYVGGDR”, the “soluble on expression in E. coli” value is recorded as “not soluble”.

Regarding “MSKDAKSPKKLRSNRAALTHKVGYALRHPERVGPYVRRAGRDAWLRVKHPDHVGYYRAVMASDARRSPEAAVGSRTHDRWLALGQMQFDYLVEHGLRPGHRMLDIGCGNLRGGWRFIDHLDSGHYYGVDISPDILIAAKKTLTERGLQAKLPHLTITGDLRLEFLPDDHFDVVHAHSVFSHSPLNVIDECLAHVGRVLTDTGFFDFTFDRTEGTEHQVLREDFYYRTDTLLTLAAQHNLHARFMEDWEKRPHGQSKIRVSRSPLPSLEHHHHHH”, the “soluble on expression in E. coli” value is listed as “not soluble”.

“MSKEDFVIKPEAAGASTDTSEWPLLLKNFDKLLVRSGHYTPIPAGSSPLKRDLKSYISSGVINLDKPSNPSSHEVVAWIKRILRCEKTGHSGTLDPKVTGCLIVCIDRATRLVKSQQGAGKEYVCIVRLHDALKDEKDLGRSLENLTGALFQRPPLISAVKRQLRVRTIYESNLIEFDNKRNLGVFWASCEAGTYMRTLCVHLGMLLGVGGHMQELRRVRSGALSENDNMVTLHDVMDAQWVYDNTRDESYLRSIIQPLETLLVGYKRIVVKDSAVNAVCYGAKLMIPGLLRYEEGIELYDEIVLITTKGEAIAVAIAQMSTVDLASCDHGVVASVKRCIMERDLYPRRWGLGPVAQKKKQMKADGKLDKYGRVNENTPEQWKKEYVPLDNAEQSTSSSQETKETEEEPKKAKEDSLIKEVETEKEEVKEDDSKKEKKEKKDKKEKKEKKEKKDKKEKKEKKEKKRKSEDGDSEEKKSKKSKK”: the “soluble on expression in E. coli” value was “not soluble”.

Turning to “MSKGASAPQQQSAFKQLYTELFNNEGDFSKVSSNLKKPLKCYVKESYPHFLVTDGYFFVAPYFTKEAVNEFHAKFPNVNIVDLTDKVIVINNWSLELRRVNSAEVFTSYANLEARLIVHSFKPNLQERLNPTRYPVNLFRDDEFKTTIQHFRHTALQAAINKTVKGDNLVDISKVADAAGKKGKVDAGIVKASASKGDEFSDFSFKEGNTATLKIADIFVQEKGKDALNKAADHTDGAKVKGGAKGKGKAAAKAAKGKKLSAKKGDSSAADVRKSVDKIVKYTPSKGSRKDTPQKSQAPAAGKSSAKKGGKKAVPSAPSPSGKKSALTTDKMTMAQFVKYLDWHEKKKGGKVSSGGKVLGKRSAGKASATSGKASKASKKTAAKK”, the “soluble on expression in E. coli” value is “soluble”.

With “MSKGEKMKIKVGVLGATGSVGQRFVQLLADHPMFELTALAASERSAGKKYKDACYWFQDRDIPENIKDMVVIPTDPKHEEFEDVDIVFSALPSDLAKKFEPEFAKEGKLIFSNASAYRMEEDVPLVIPEVNADHLELIEIQREKRGWDGAIITNPNCSTICAVITLKPIMDKFGLEAVFIATMQAVSGAGYNGVPSMAILDNLIPFIKNEEEKMQTESLKLLGTLKDGKVELANFKISASCNRVAVIDGHTESIFVKTKEGAEPEEIKEVMDKFDPLKDLNLPTYAKPIVIREEIDRPQPRLDRNEGNGMSIVVGRIRKDPIFDVKYTALEHNTIRGAAGASVLNAEYFVKKYI”, the “soluble on expression in E. coli” value was “soluble”.
